# Measurements as given in patent publication US20070286859A1.
# Biological target: FcγRIIIa on human PBMCs expressing heterozygous V158/F158 FcγRIIIa (human) (UniProt P08637)
# Experiment: cell-based or functional assay
# Sequence of FcγRIIIa on human PBMCs expressing heterozygous V158/F158 FcγRIIIa (human) (P08637 17-254): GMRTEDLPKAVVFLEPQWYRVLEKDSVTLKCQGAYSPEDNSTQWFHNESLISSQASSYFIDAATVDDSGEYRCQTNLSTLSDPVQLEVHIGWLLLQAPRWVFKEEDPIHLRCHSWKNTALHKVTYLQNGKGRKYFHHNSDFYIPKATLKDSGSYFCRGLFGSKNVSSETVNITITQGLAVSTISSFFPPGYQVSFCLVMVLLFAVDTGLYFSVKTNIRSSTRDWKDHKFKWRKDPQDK
ADCC EC50 [ng/mL],ADCC Fold WT [fold],ADCC log(EC50),Substance
3,3.3,0.49,S239D/I332E alemtuzumab (antibody)
4,,0.6,V264I/I332E alemtuzumab (antibody)
